Test results: patent EP4763862A1

Biological target: Human B7-H3-His protein (human) (UniProt Q5ZPR3)
Assay: BLI, Fortebio Octet R2, antibody on AMQ sensor, human B7-H3-His in solution

Kd [nM] | koff [s⁻¹] | kon [M⁻¹ s⁻¹] | Binder
< 0.001 | < 1e-07 | 1.3e+06 | 16-B6-G3-E10 (antibody, human IgG1, kappa, V domains shown) VH: EVQLQQSGTELVRPGALVKLSCKTSGFNIKDCYMHWVKQRPEQGLEWIGWIDPENGNTIYDPKFQGKATITADTSSYTAYLQLSSLTSEDTAVYYCARSRARGYAMDYWGQGTSVTVTS VL: DIVMTQSPASLAVSLGQRATISCRASQSVSTSSYSYMHWYRQIPGQPPKLLIKYASNLESGVPARFSGSGSGTDFTLNIHPVEEEDTATYYCQHSWEIPRTFGGGTKLELKR
0.0877 | 0.000142 | 1.62e+06 | 16-D10-E1-E1 (antibody, human IgG1, kappa, V domains shown) VH: EVQLQQSGPELVRPGVSVKISCKGSGYTFTDYAMHWVKQSHAKSLEWIGVINTYSGNTYYSQKFKGKATMTVDKSSSTAYMELARLTSEDSAIYYCARGAGYFPYWYFDVWGAGTTVTVSS VL: DIQMIQSPSYLAASPGETITINCRASKSISKYLAWYQEKPGKTNKLLIYSGSTLQSGIPSRFSGSGSGTDFTLTISSLEPEDFAMYYCQQHYEYPYTFGGGTKLEIKR
0.0714 | 8.49e-05 | 1.19e+06 | 28-B1-E8-C11 (antibody, human IgG1, kappa, V domains shown) VH: EVKLVESGAVLVKPGASVKISCKASGYTLSDFNMDWVKQSQGKSLEWVGDINPNYDTITYNQKFRGKATLTVDRSSNTAYMELRSLTSEDSAVYYCARGELGRYFYVWGAGTTVTVSS VL: DIQLTQPPASLSASVGETVTITCRASENVYSYLAWYRQKQGRSPQLLVYNAKTLPEGVPSRFSGSGSGTQFSLKINSLQTEDLGDYYCQHHYGTPWTFGGGTKLEIKR
0.0522 | 7.52e-05 | 1.44e+06 | 34-H11-D9-F6 (antibody, human IgG1, kappa, V domains shown) VH: EVQLQQSGAELVKPRASVRLSCRASGYTFTSYWMHWVKQRPGQGLEWIGMIHPNSGSTNYNEKFKSKATLTVDKSSSTAYMQLSSLTSEDSAVYFCARERFGLLRYFDYWGQGTTLTVSS VL: DIVMTQSPSSMYASLGERVTITCKASQDINSFLSWFQQKPGKSPKTLLYRANRLMDGVPSRFSGSGSGQDFSLTISSREYEDMGIYYCLQYDEFPFTFGSGTKLELKR
0.0434 | 7.56e-05 | 1.74e+06 | 28-F8-C4-A8 (antibody, human IgG1, kappa, V domains shown) VH: EVQLQQSGAELVQPGASMKLSCKTSGYTFTTYDINWVRQRPEQGLEWIGWIFPGDGTTKYNEKFKGKATLTTDKSSSTAYMHLSRLTSEDSVVYFCARTPWFDYWGQGTTLTVSS VL: DIVLSQSPAIMSASPGEKVIMTCSASSSISYMYWYQQKPGTSPKRWIYDTSKLASGVPARFSVSGSGTSYSLTISSMEAEDAATYYCHQRSSYPTFGGGTKLELKR
2.32 | 0.000408 | 176000 | 19-F1-E9-B11 (antibody, human IgG1, kappa, V domains shown) VH: EVQLQQSGPSLVKPSQTLSLTCSVTGGSITSFYWNWIRKFPGNKLEYMGYISSSGSTYYNPSLKSRISITRDTSKNQSYLQLNSVTAEDTATYYCARGGVHYGFGDYWGQGTSVTVSS VL: DIVMTQSAPSVPVTPGESVSISCRSSKSLLHSNGNTYLYWFLQRPGQSPQLLIYRMSNLASGVPDRFSGSGSGTAFTLRISRVEAEDVGVYYCMQHLEYPLTFGAGTKLELKR

Biological target: Human B7-H3-His protein (human) (UniProt Q5ZPR3)
Assay: SPR, Biacore 8K, antibody captured by anti-human IgG Fc on CM5, B7-H3 Human-His as analyte, 1:1 model

Kd [nM] | koff [s⁻¹] | kon [M⁻¹ s⁻¹] | Binder
5.91 | 0.000846 | 143000 | 28-B1-E8-C11 (antibody, human IgG1, kappa, V domains shown) VH: EVKLVESGAVLVKPGASVKISCKASGYTLSDFNMDWVKQSQGKSLEWVGDINPNYDTITYNQKFRGKATLTVDRSSNTAYMELRSLTSEDSAVYYCARGELGRYFYVWGAGTTVTVSS VL: DIQLTQPPASLSASVGETVTITCRASENVYSYLAWYRQKQGRSPQLLVYNAKTLPEGVPSRFSGSGSGTQFSLKINSLQTEDLGDYYCQHHYGTPWTFGGGTKLEIKR
4.85 | 0.000802 | 165000 | cAb2-z1-p9 (antibody, human IgG1, kappa, V domains shown) VH: EVKLVESGAVLVKPGASVKISCKASGYTLSDFNMDWVKQSQGKSLEWVGDINPNYDTITYNQKFRGKATLTVDRSSNTAYMELRSLTSEDSAVYYCARGELGRYFYVWGAGTTVTVSS VL: DIQLTQPPSSLSASVGDRVTITCRASENVYSYLAWYQQKPGRSPQLLVYNAKTLPEGVPSRFSGSGSGTQFTLTISSLQPEDFADYYCSHHYGTPWTFGGGTKVEIKR
6.53 | 8.2e-05 | 12600 | cAb1-z0-p7 (antibody, human IgG1, kappa, V domains shown) VH: EVQLVESGGGLVKPGGSLRLSCAASGFTFSSYGMSWVRQAPGKGLEWVSSISGSGSYTYYPDSLKGRFTISRDNAKNSLYLQMNSLRAEDTAVYYCARQQGYWYFDVWGQGTTVTVSS VL: DIVMTQTPLSLPVTPGEPASISCRASQSLASSYGKTYLSWYLQKPGQSPQLLIYGISNRFSGVPDRFSGSGSGTDFTLKISRVEAEDVGVYYCLHGTHQPLTFGQGTKLEIKR
3.51 | 7.21e-05 | 20500 | cAb1-z5-p7 (antibody, human IgG1, kappa, V domains shown) VH: EVQLVESGGGLVKPGGSLRLSCAASGFTFSSYGMSWVRQAPGKRLEWVASISGSGSYTYYPDSLKGRFTISRDNAKNSLYLQMNSLRAEDTAVYYCARQQGYWYFDVWGQGTTVTVSS VL: DVVMTQTPLSLPVTPGEPASISCRASQSLASSYGKTYLSWYLQKPGQSPQLLIYGISNRFSGVPDRFSGSGSGTDFTLKISRVEAEDVGVYYCLHGTHQPLTFGQGTKLEIKR
4.02 | 6.87e-05 | 17100 | cAb1-z3-p7 (antibody, human IgG1, kappa, V domains shown) VH: EVQLVESGGGLVKPGGSLRLSCAASGFTFSSYGMSWVRQAPGKRLEWVSSISGSGSYTYYPDSLKGRFTISRDNAKNSLYLQMNSLRAEDTAVYYCARQQGYWYFDVWGQGTTVTVSS VL: DVVMTQTPLSLPVTPGEPASISCRASQSLASSYGKTYLSWYLQKPGQSPQLLIYGISNRFSGVPDRFSGSGSGTDFTLKISRVEAEDVGVYYCLHGTHQPLTFGQGTKLEIKR
6.6 | 0.00122 | 184000 | cAb2-z5-p6 (antibody, human IgG1, kappa, V domains shown) VH: QVQLVESGAVVKKPGASVKVSCKASGYTLSDFNMDWVRQAPGKSLEWMGDINPNYDTITYNQKFRGRVTLTVDRSINTAYMELSRLRSDDTAVYYCARGELGRYFYVWGAGTMVTVSS VL: DIQLTQPPSSLSASVGDRVTITCRASENVYSYLAWYQQKPGRSPQLLVYNAKTLPEGVPSRFSGSGSGTQFTLTISSLQPEDFADYYCSHHYGTPWTFGGGTKVEIKR
